Test results: the supplement of paper PMC5998384

Columns and labels:
[1] = system: HeLa Kyoto; experiment: solubility in G1/S (NP-40 vs SDS abundance) (log2 ratio); higher = more soluble; conditions: cell cycle stage: G1/S
[2] = system: HeLa Kyoto; experiment: solubility change mitosis vs G1/S (difference of NP-40 vs SDS log2 ratios) (log2 ratio difference); higher = more soluble in mitosis
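For solubility change mitosis vs G1/S (difference of NP-40 vs SDS log2 ratios) in this document: synchronized HeLa Kyoto cells (double thymidine block for G1/S, nocodazole release for mitosis), protein amounts in NP-40 versus SDS lysates quantified by mass spectrometry, three biological replicates.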
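For solubility in G1/S (NP-40 vs SDS abundance) in this document: HeLa Kyoto cells arrested at G1/S by double thymidine block, proteins quantified by TMT10plex mass spectrometry in mild NP-40 versus SDS extracts, three biological replicates.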

| Sequence | solubility in G1/S (log2) [1] | solubility change mitosis (log2) [2] |
| --- | --- | --- |
| MPPLKSPAAFHEQRRSLERARTEDYLKRKIRSRPERSELVRMHILEETSAEPSLQAKQLKLKRARLADDLNEKIAQRPGPMELVEKNILPVESSLKEAIIVGQVNYPKVADSSSFDEDSSDALSPEQPASHESQGSVPSPLEARVSEPLLSATSASPTQVVSQLPMGRDSREMLFLAEQPPLPPPPLLPPSLTNGTTIPTAKSTPTLIKQSQPKSASEKSQRSKKAKELKPKVKKLKYHQYIPPDQKQDRGAPPMDSSYAKILQQQQLFLQLQILNQQQQQHHNYQAILPAPPKSAGEALGSSGTPPVRSLSTTNSSSSSGAPGPCGLARQNSTSLTGKPGALPANLDDMKVAELKQELKLRSLPVSGTKTELIERLRAYQDQISPVPGAPKAPAATSILHKAGEVVVAFPAARLSTGPALVAAGLAPAEVVVATVASSGVVKFGSTGSTPPVSPTPSERSLLSTGDENSTPGDTFGEMVTSPLTQLTLQASPLQILVKEEGPRAGSCCLSPGGRAELEGRDKDQMLQEKDKQIEALTRMLRQKQQLVERLKLQLEQEKRAQQPAPAPAPLGTPVKQENSFSSCQLSQQPLGPAHPFNPSLAAPATNHIDPCAVAPGPPSVVVKQEALQPEPEPVPAPQLLLGPQGPSLIKGVAPPTLITDSTGTHLVLTVTNKNADSPGLSSGSPQQPSSQPGSPAPAPSAQMDLEHPLQPLFGTPTSLLKKEPPGYEEAMSQQPKQQENGSSSQQMDDLFDILIQSGEISADFKEPPSLPGKEKPSPKTVCGSPLAAQPSPSAELPQAAPPPPGSPSLPGRLEDFLESSTGLPLLTSGHDGPEPLSLIDDLHSQMLSSTAILDHPPSPMDTSELHFVPEPSSTMGLDLADGHLDSMDWLELSSGGPVLSLAPLSTTAPSLFSTDFLDGHDLQLHWDSCL [MKL1] | 0.297 | -0.244 |
| MPRCPAGAMDEGPVDLRTRPKAAGLPGAALPLRKRPLRAPSPEPAAPRGAAGLVVPLDPLRGGCDLPAVPGPPHGLARPEALYYPGALLPLYPTRAMGSPFPLVNLPTPLYPMMCPMEHPLSADIAMATRADEDGDTPLHIAVVQGNLPAVHRLVNLFQQGGRELDIYNNLRQTPLHLAVITTLPSVVRLLVTAGASPMALDRHGQTAAHLACEHRSPTCLRALLDSAAPGTLDLEARNYDGLTALHVAVNTECQETVQLLLERGADIDAVDIKSGRSPLIHAVENNSLSMVQLLLQHGANVNAQMYSGSSALHSASGRGLLPLVRTLVRSGADSSLKNCHNDTPLMVARSRRVIDILRGKATRPASTSQPDPSPDRSANTSPESSSRLSSNGLLSASPSSSPSQSPPRDPPGFPMAPPNFFLPSPSPPAFLPFAGVLRGPGRPVPPSPAPGGS [BCL3] | 0.0652 | -0.154 |
| MPTWGARPASPDRFAVSAEAENKVREQQPHVERIFSVGVSVLPKDCPDNPHIWLQLEGPKENASRAKEYLKGLCSPELQDEIHYPPKLHCIFLGAQGFFLDCLAWSTSAHLVPRAPGSLMISGLTEAFVMAQSRVEELAERLSWDFTPGPSSGASQCTGVLRDFSALLQSPGDAHREALLQLPLAVQEELLSLVQEASSGQGPGALASWEGRSSALLGAQCQGVRAPPSDGRESLDTGSMGPGDCRGARGDTYAVEKEGGKQGGPREMDWGWKELPGEEAWEREVALRPQSVGGGARESAPLKGKALGKEEIALGGGGFCVHREPPGAHGSCHRAAQSRGASLLQRLHNGNASPPRVPSPPPAPEPPWHCGDRGDCGDRGDVGDRGDKQQGMARGRGPQWKRGARGGNLVTGTQRFKEALQDPFTLCLANVPGQPDLRHIVIDGSNVAMVHGLQHYFSSRGIAIAVQYFWDRGHRDITVFVPQWRFSKDAKVRESHFLQKLYSLSLLSLTPSRVMDGKRISSYDDRFMVKLAEETDGIIVSNDQFRDLAEESEKWMAIIRERLLPFTFVGNLFMVPDDPLGRNGPTLDEFLKKPARTQGSSKAQHPSRGFAEHGKQQQGREEEKGSGGIRKTRETERLRRQLLEVFWGQDHKVDFILQREPYCRDINQLSEALLSLNF [KHNYN] | 0.384 | -0.219 |
| MPVERMRMRPWLEEQINSNTIPGLKWLNKEKKIFQIPWMHAARHGWDVEKDAPLFRNWAIHTGKHQPGVDKPDPKTWKANFRCAMNSLPDIEEVKDKSIKKGNNAFRVYRMLPLSERPSKKGKKPKTEKEDKVKHIKQEPVESSLGLSNGVSDLSPEYAVLTSTIKNEVDSTVNIIVVGQSHLDSNIENQEIVTNPPDICQVVEVTTESDEQPVSMSELYPLQISPVSSYAESETTDSVPSDEESAEGRPHWRKRNIEGKQYLSNMGTRGSYLLPGMASFVTSNKPDLQVTIKEESNPVPYNSSWPPFQDLPLSSSMTPASSSSRPDRETRASVIKKTSDITQARVKSC [IRF2] | 0.0934 | 0.0622 |
| MPYVDRQNRICGFLDIEEHENSGKFLRRYFILDTQANCLLWYMDNPQNLAMGAGAVGALQLTYISKVSIATPKQKPKTPFCFVINALSQRYFLQANDQKDMKDWVEALNQASKITVPKGGGLPMTTEVLKSLAAPPALEKKPQVAYKTEIIGGVVVHTPISQNGGDGQEGSEPGSHTILRRSQSYIPTSGCRASTGPPLIKSGYCVKQGNVRKSWKRRFFALDDFTICYFKCEQDREPLRTIFLKDVLKTHECLVKSGDLLMRDNLFEIITSSRTFYVQADSPEDMHSWIKEIGAAVQALKCHPRETSFSRSISLTRPGSSSLSSGPNSILCRGRPPLEEKKALCKAPSVASSWQPWTPVPQAGEKLLPPGDTSEDSLFTPRPGEGSAPGVLPSSRIRHRSEPQHPKEKPFMFNLDDENIRTSDV [PLEKHA2] | 0.121 | -0.19 |
| MQAKKRYFILLSAGSCLALLFYFGGLQFRASRSHSRREEHSGRNGLHHPSPDHFWPRFPDALRPFVPWDQLENEDSSVHISPRQKRDANSSIYKGKKCRMESCFDFTLCKKNGFKVYVYPQQKGEKIAESYQNILAAIEGSRFYTSDPSQACLFVLSLDTLDRDQLSPQYVHNLRSKVQSLHLWNNGRNHLIFNLYSGTWPDYTEDVGFDIGQAMLAKASISTENFRPNFDVSIPLFSKDHPRTGGERGFLKFNTIPPLRKYMLVFKGKRYLTGIGSDTRNALYHVHNGEDVVLLTTCKHGKDWQKHKDSRCDRDNTEYEKYDYREMLHNATFCLVPRGRRLGSFRFLEALQAACVPVMLSNGWELPFSEVINWNQAAVIGDERLLLQIPSTIRSIHQDKILALRQQTQFLWEAYFSSVEKIVLTTLEIIQDRIFKHISRNSLIWNKHPGGLFVLPQYSSYLGDFPYYYANLGLKPPSKFTAVIHAVTPLVSQSQPVLKLLVAAAKSQYCAQIIVLWNCDKPLPAKHRWPATAVPVVVIEGESKVMSSRFLPYDNIITDAVLSLDEDTVLSTTEVDFAFTVWQSFPERIVGYPARSHFWDNSKERWGYTSKWTNDYSMVLTGAAIYHKYYHYLYSHYLPASLKNMVDQLANCEDILMNFLVSAVTKLPPIKVTQKKQYKETMMGQTSRASRWADPDHFAQRQSCMNTFASWFGYMPLIHSQMRLDPVLFKDQVSILRKKYRDIERL [EXT1] | -0.14 | -0.163 |
| MQGSTRRMGVMTDVHRRFLQLLMTHGVLEEWDVKRLQTHCYKVHDRNATVDKLEDFINNINSVLESLYIEIKRGVTEDDGRPIYALVNLATTSISKMATDFAENELDLFRKALELIIDSETGFASSTNILNLVDQLKGKKMRKKEAEQVLQKFVQNKWLIEKEGEFTLHGRAILEMEQYIRETYPDAVKICNICHSLLIQGQSCETCGIRMHLPCVAKYFQSNAEPRCPHCNDYWPHEIPKVFDPEKERESGVLKSNKKSLRSRQH [NSMCE1] | 0.0262 | -0.0633 |
| MQLEIQVALNFIISYLYNKLPRRRVNIFGEELERLLKKKYEGHWYPEKPYKGSGFRCIHIGEKVDPVIEQASKESGLDIDDVRGNLPQDLSVWIDPFEVSYQIGEKGPVKVLYVDDNNENGCELDKEIKNSFNPEAQVFMPISDPASSVSSSPSPPFGHSAAVSPTFMPRSTQPLTFTTATFAATKFGSTKMKNSGRSNKVARTSPINLGLNVNDLLKQKAISSSMHSLYGLGLGSQQQPQQQQQPAQPPPPPPPPQQQQQQKTSALSPNAKEFIFPNMQGQGSSTNGMFPGDSPLNLSPLQYSNAFDVFAAYGGLNEKSFVDGLNFSLNNMQYSNQQFQPVMAN [TOB1] | 0.14 | -0.114 |
| MQLRKMQTVKKEQASLDASSNVDKMMVLNSALTEVSEDSTTGEELLLSEGSVGKNKSSACRRKREFIPDEKKDAMYWEKRRKNNEAAKRSREKRRLNDLVLENKLIALGEENATLKAELLSLKLKFGLISSTAYAQEIQKLSNSTAVYFQDYQTSKSNVSSFVDEHEPSMVSSSCISVIKHSPQSSLSDVSEVSSVEHTQESSVQGSCRSPENKFQIIKQEPMELESYTREPRDDRGSYTASIYQNYMGNSFSGYSHSPPLLQVNRSSSNSPRTSETDDGVVGKSSDGEDEQQVPKGPIHSPVELKHVHATVVKVPEVNSSALPHKLRIKAKAMQIKVEAFDNEFEATQKLSSPIDMTSKRHFELEKHSAPSMVHSSLTPFSVQVTNIQDWSLKSEHWHQKELSGKTQNSFKTGVVEMKDSGYKVSDPENLYLKQGIANLSAEVVSLKRLIATQPISASDSG [NFIL3] | 0.00864 | 0.104 |
| MQRAVPEGFGRRKLGSDMGNAERAPGSRSFGPVPTLLLLAAALLAVSDALGRPSEEDEELVVPELERAPGHGTTRLRLHAFDQQLDLELRPDSSFLAPGFTLQNVGRKSGSETPLPETDLAHCFYSGTVNGDPSSAAALSLCEGVRGAFYLLGEAYFIQPLPAASERLATAAPGEKPPAPLQFHLLRRNRQGDVGGTCGVVDDEPRPTGKAETEDEDEGTEGEDEGAQWSPQDPALQGVGQPTGTGSIRKKRFVSSHRYVETMLVADQSMAEFHGSGLKHYLLTLFSVAARLYKHPSIRNSVSLVVVKILVIHDEQKGPEVTSNAALTLRNFCNWQKQHNPPSDRDAEHYDTAILFTRQDLCGSQTCDTLGMADVGTVCDPSRSCSVIEDDGLQAAFTTAHELGHVFNMPHDDAKQCASLNGVNQDSHMMASMLSNLDHSQPWSPCSAYMITSFLDNGHGECLMDKPQNPIQLPGDLPGTSYDANRQCQFTFGEDSKHCPDAASTCSTLWCTGTSGGVLVCQTKHFPWADGTSCGEGKWCINGKCVNKTDRKHFDTPFHGSWGMWGPWGDCSRTCGGGVQYTMRECDNPVPKNGGKYCEGKRVRYRSCNLEDCPDNNGKTFREEQCEAHNEFSKASFGSGPAVEWIPKYAGVSPKDRCKLICQAKGIGYFFVLQPKVVDGTPCSPDSTSVCVQGQCVKAGCDRIIDSKKKFDKCGVCGGNGSTCKKISGSVTSAKPGYHDIITIPTGATNIEVKQRNQRGSRNNGSFLAIKAADGTYILNGDYTLSTLEQDIMYKGVVLRYSGSSAALERIRSFSPLKEPLTIQVLTVGNALRPKIKYTYFVKKKKESFNAIPTFSAWVIEEWGECSKSCELGWQRRLVECRDINGQPASECAKEVKPASTRPCADHPCPQWQLGEWSSCSKTCGKGYKKRSLKCLSHDGGVLSHESCDPLKKPKHFIDFCTMAECS [ADAMTS1] | -0.34 | -0.192 |
| MQRRSRGINTGLILLLSQIFHVGINNIPPVTLATLALNIWFFLNPQKPLYSSCLSVEKCYQQKDWQRLLLSPLHHADDWHLYFNMASMLWKGINLERRLGSRWFAYVITAFSVLTGVVYLLLQFAVAEFMDEPDFKRSCAVGFSGVLFALKVLNNHYCPGGFVNILGFPVPNRFACWVELVAIHLFSPGTSFAGHLAGILVGLMYTQGPLKKIMEACAGGFSSSVGYPGRQYYFNSSGSSGYQDYYPHGRPDHYEEAPRNYDTYTAGLSEEEQLERALQASLWDRGNTRNSPPPYGFHLSPEEMRRQRLHRFDSQ [RHBDD1] | -0.291 | -0.0234 |
